Measurements reported in patent US20240218374.

How the values were obtained:
[1] = target: Spike S2 ECD (SARS-CoV-2) (UniProt P0DTC2); assay: filter; details: Y=Tyr-dU, p=Nap-dC
[2] = target: authentic SARS-CoV-2 virus (VIC01, Clade B) spike (SARS-CoV-2) (UniProt P0DTC2); assay: cell_activity; details: Y=Tyr-dU, p=Nap-dC; printed GGGAYApYAYGpGYppGAppGpYpGGApG [Tyr-dU: 5,8,10,14,23; Nap-dC: 7,12,15,16,19,20,22,24,28]
[3] = target: Spike S1 & S2 ECD (SARS-CoV-2) (UniProt P0DTC2); assay: filter
[4] = target: Spike RBD (SARS-CoV-2) (UniProt P0DTC2); assay: filter; details: P=Nap-dU
[5] = target: Spike S1 (SARS-CoV-2) (UniProt P0DTC2); assay: filter
[6] = target: Spike RBD-mFc (ACE2 inhibition assay) (SARS-CoV-2) (UniProt P0DTC2); assay: inhibition; details: Y=Tyr-dU, p=Nap-dC; printed CCTTGGGAYApYAYGpGYppGAppGpYpGGApGGAGAAGG [Tyr-dU: 9,12,14,18,27; Nap-dC: 11,16,19,20,23,24,26,28,32]
[7] = Y=Tyr-dU, p=Nap-dC, SB18T0.01, 37 C

CCTTGTGCAACGCACCTTATTCGGCTTGAATGTGAGAAGG [26876-13_4 (SL1115)]
Kd ([1]; printed CCTTGYGpAApGpAppYYAYYpGGpYYGAAYGYGAGAAGG [Nap-dC: 8,11,13,15,16,22,25, Tyr-dU: 6,17,18,20,21,26,27,31,33]): 0.19 nM

GGGATACTATGCGTCCGACCGCTCGGACG [26874-29_20 (SL1111_20)]
IC50 [2]: 1.1 nM

CCTTGCAGGCGGCACATGGCACTTCATATCGAGCGGAAGG [26876-3_4 (SL1114)]
Kd ([1]; printed CCTTGpAGGpGGpApAYGGpApYYpAYAYpGAGpGGAAGG [Nap-dC: 6,10,13,15,20,22,25,30,34, Tyr-dU: 17,23,24,27,29]): 0.37 nM

GGGANANNANGNGNNNGANNGNNNGGANG [26874-29_142]
Kd ([3]; iBudU at 14, other dU Tyr-dU, dC Nap-dC, SB18T0.01, 37 C): 0.37 nM

GGGANANNANGNGNNNGANNGNNNGGANG [26874-29_55]
Kd ([3]; NapdU at 23, other dU Tyr-dU, dC Nap-dC, SB18T0.01, 37 C): 0.25 nM

GGGANANNANGNGNNNGANNGNNNGGANG [26874-29_58]
Kd ([3]; TrpdU at 8, other dU Tyr-dU, dC Nap-dC, SB18T0.01, 37 C): 0.27 nM

GGGANANNANGNGNNNGANNGNNNGGANG [26874-29_57]
Kd ([3]; BndU at 5, other dU Tyr-dU, dC Nap-dC, SB18T0.01, 37 C): 0.21 nM

GGGANANNANGNGNNNGANNGNNNGGANG [26874-29_136]
Kd ([3]; iBudU at 5, other dU Tyr-dU, dC Nap-dC, SB18T0.01, 37 C): 0.57 nM

GGGANANNANGNGNNNGANNGNNNGGANG [26874-29_99]
Kd ([3]; ThrdU at 8, other dU Tyr-dU, dC Nap-dC, SB18T0.01, 37 C): 0.24 nM

GGGANANNANGNGNNNGANNGNNNGGANG [OH-26874-29_333]
Kd ([3]; Y=Tyr-dU, p=Nap-dC, position 12 DCPE-dC, protein construct inferred): 0.11 nM

GGGANANNANGNGNNNGANNGNNNGGANG [26874-29_150]
Kd ([3]; Y=Tyr-dU, p=Nap-dC, position 10 MBn-dU, Kd/Kd_20 38): 16 nM

GGGANANNANGNGNNNGANNGNNNGGANG [OH-26874-29_328]
Kd ([3]; Y=Tyr-dU, p=Nap-dC, position 20 DPP-dC): 0.038 nM

GGGANANNANGNGNNNGANNGNNNGGANG [26874-29_117]
Kd ([3]; POPdU at 5, other dU Tyr-dU, dC Nap-dC, SB18T0.01, 37 C): 0.42 nM

GGGANANNANGNGNNNGANNGNNNGGANG [26874-29_115]
Kd ([3]; 2NapdU at 23, other dU Tyr-dU, dC Nap-dC, SB18T0.01, 37 C): 0.46 nM

GGGANANNANGNGNNNGANNGNNNGGANG [26874-29_85]
Kd ([3]; PEdU at 23, other dU Tyr-dU, dC Nap-dC, low plateau): 0.29 nM

GGGAHANNANGNGNNNGANNGNNNGGANG [26874-29_96]
Kd ([3]; ThdU at 5, other dU Tyr-dU, dC Nap-dC, SB18T0.01, 37 C): 0.27 nM

GGGANANNANGNGNNNGANNGNNNGGANG [26874-29_105]
Kd ([3]; ThrdU at 23, other dU Tyr-dU, dC Nap-dC, SB18T0.01, 37 C): 0.79 nM

GGGANANNANGNGNNNGANNGNNNGGANG [26874-29_154]
Kd ([3]; MBndU at 23, other dU Tyr-dU, dC Nap-dC, SB18T0.01, 37 C): 0.43 nM

GGGANANNANGNGNNNGANNGNNNGGANG [26874-29_60]
Kd ([3]; Y=Tyr-dU, p=Nap-dC, position 10 Trp-dU, Kd/Kd_20 0.24): 0.098 nM

GGGANANNANGNGNNNGANNGNNNGGANG [26874-29_112]
Kd ([3]; MOEdU at 14, other dU Tyr-dU, dC Nap-dC, SB18T0.01, 37 C): 0.56 nM

GGGANANNANGNGNNNGANNGNNNGGANG [26874-29_65]
Kd ([3]; BndU at 23, other dU Tyr-dU, dC Nap-dC, SB18T0.01, 37 C): 0.28 nM

GCATCATCTCCCAGCTAATGAGTGTCTGAATTGGACTGGTCCTCTGGGGA [26860-75_3 (SL1107)]
Kd ([4]; printed GCATCAPCPCCCAGCPAAPGAGPGPCPGAAPPGGACPGGPCCPCPGGGGA [7,9,16,19,23,25,27,31,32,37,40,43,45]): 0.23 nM
Kd ([5]; P=Nap-dU, printed GCATCAPCPCCCAGCPAAPGAGPGPCPGAAPPGGACPGGPCCPCPGGGGA [7,9,16,19,23,25,27,31,32,37,40,43,45]): 2.8 nM

GGGANANNANGNGNNNGANNGNNNGGANG [26874-29_70]
Kd ([3]; PBndU at 10 (printed sequence lacks Y at 10, F^ in place), other dU Tyr-dU, dC Nap-dC, SB18T0.01, 37 C): 0.2 nM

GGGANANNANGNGNNNGANNGNNNGGANG [OH-26874-29_181]
Kd ([3]; 2Nap-dC at 7, other dC Nap-dC, dU Tyr-dU): 0.2 nM

ANNANGNGNNNGANNGNNNGGANG [26874-29_25]
Kd [3, 7]: 1.8 nM

GGGANANNANGNGNNNGANNGNNNGGANG [26874-29_113]
Kd ([3]; 2NapdU at 14, other dU Tyr-dU, dC Nap-dC, SB18T0.01, 37 C): 0.32 nM

GGGANANNANGNGNNNGANNGNNNGGANG [26874-29_84]
Kd ([3]; NEdU at 23, other dU Tyr-dU, dC Nap-dC, SB18T0.01, 37 C): 0.44 nM

CCTTGGGATACTATGCGTCCGACCGCTCGGACGGAGAAGG [26874-29_4 (SL1111)]
Kd ([5]; Y=Tyr-dU, p=Nap-dC, printed CCTTGGGAYApYAYGpGYppGAppGpYpGGApGGAGAAGG [Tyr-dU: 9,12,14,18,27, Nap-dC: 11,16,19,20,23,24,26,28,32]): 3.2 nM
EC50 [6]: 4.2 nM

GGGANANNANGNGNNNGANNGNNNGGANG [26874-29_148]
Kd ([3]; MBndU at 8, other dU Tyr-dU, dC Nap-dC, low plateau): 0.46 nM

GGGANANNANGNGNNNGANNGNNNGGANG [26874-29_72]
Kd ([3]; Y=Tyr-dU, p=Nap-dC, position 14 PBn-dU, Kd/Kd_20 0.33): 0.14 nM

GGGANANNANGNGNNNGANNGNNNGGANG [26874-29_107]
Kd ([3]; 2NapdU at 5, other dU Tyr-dU, dC Nap-dC, SB18T0.01, 37 C): 0.49 nM

GGGANANNANGNGNNNGANNGNNNGGANG [26874-29_74]
Kd ([3]; PBndU at 23, other dU Tyr-dU, dC Nap-dC, low plateau, very faint spots): 0.46 nM

GGGANANNANGNGNNNGANNGNNNGGANG [26874-29_155]
Kd ([3]; BPEdU at 23, other dU Tyr-dU, dC Nap-dC, SB18T0.01, 37 C): 0.17 nM

GGGANANNANGNGNNNGANNGNNNGGANG [26874-29_76]
Kd ([3]; NEdU at 5, other dU Tyr-dU, dC Nap-dC, SB18T0.01, 37 C): 0.46 nM

GGGANANNANGNGNNNGANNGNNNGGANG [26874-29_93]
Kd ([3]; PPdU at 14, other dU Tyr-dU, dC Nap-dC, SB18T0.01, 37 C): 0.24 nM

GGGANANNANGNGNNNGANNGNNNGGANG [OH-26874-29_182]
Kd ([3]; 2Nap-dC at 12, other dC Nap-dC, dU Tyr-dU): 0.41 nM

GGGANANNANGNGNNNGANNGNNNGGANG [26874-29_59]
Kd ([3]; BndU at 8, other dU Tyr-dU, dC Nap-dC, SB18T0.01, 37 C): 0.18 nM

GGGANANNANGNGNNNGANNGNNNGGANG [OH-26874-29_330]
Kd ([3]; Y=Tyr-dU, p=Nap-dC, position 24 DPP-dC, protein construct inferred): 0.11 nM

GGGANANNANGNGNNNGANNGNNNGGANG [26874-29_101]
Kd ([3]; ThrdU at 10, other dU Tyr-dU, dC Nap-dC, SB18T0.01, 37 C): 0.36 nM

GGGANANNANGNGNNNGANNGNNNGGANG [26874-29_64]
Kd ([3]; TrpdU at 23, other dU Tyr-dU, dC Nap-dC, SB18T0.01, 37 C): 0.27 nM

GGGANANNANGNGNNNGANNGNNNGGANG [26874-29_121]
Kd ([3]; POPdU at 10, other dU Tyr-dU, dC Nap-dC, low plateau): 0.42 nM

GGGANANNANGNGNNNGANNGNNNGGANG [26874-29_152]
Kd ([3]; MBndU at 14, other dU Tyr-dU, dC Nap-dC, SB18T0.01, 37 C): 0.33 nM

GGGANANNANGNGNNNGANNGNNNGGANG [26874-29_147]
Kd ([3]; BPEdU at 5, other dU Tyr-dU, dC Nap-dC, assigned, low plateau): 0.44 nM

GGGANANNANGNGNNNGANNGNNNGGANG [26874-29_77]
Kd ([3]; Y=Tyr-dU, p=Nap-dC, position 5 PE-dU, Kd/Kd_20 0.32): 0.13 nM

GCATCGGAATGAATGTCTGCCTTGCACTGGTGCGGTCCGATTGTGAGGGA [26860-16_3 (SL1108)]
Kd ([4]; printed GCATCGGAAPGAAPGPCPGCCPPGCACPGGPGCGGPCCGAPPGPGAGGGA [Nap-dU at 10,14,16,18,22,23,28,31,36,41,42,44]): 0.061 nM
Kd ([5]; P=Nap-dU, printed GCATCGGAAPGAAPGPCPGCCPPGCACPGGPGCGGPCCGAPPGPGAGGGA [Nap-dU at 10,14,16,18,22,23,28,31,36,41,42,44]): 0.48 nM

GGGANANNANGNGNNNGANNGNNNGGANG [26874-29_116]
Kd ([3]; BTdU at 5, other dU Tyr-dU, dC Nap-dC, low plateau): 0.53 nM

GGGANANNANGNGNNNGANNGNNNGGANG [26874-29_66]
Kd ([3]; PBndU at 5, other dU Tyr-dU, dC Nap-dC, SB18T0.01, 37 C): 0.19 nM

GGGANANNANGNGNNNGANNGNHNGGANG [26874-29_104]
Kd ([3]; ThdU at 23, other dU Tyr-dU, dC Nap-dC, SB18T0.01, 37 C): 0.59 nM

GGGANANNANGNGNNNGANNGNNNGGANG [26874-29_47]
Kd ([3]; NapdU at 5, other dU Tyr-dU, dC Nap-dC, SB18T0.01, 37 C): 0.31 nM

GGGANANNANGNGNNNGANNGNNNGGANG [26874-29_52]
Kd ([3]; Y=Tyr-dU, p=Nap-dC, position 14 FBn-dU, Kd/Kd_20 0.27): 0.11 nM

GNGNAANGNANNNNANNNGGNNNGAANGNG [26876-13_15]
Kd [3, 7]: 0.26 nM
